B1: Flag-CNK^2–549 [Drosophila] / Myc-MEK [Drosophila] (parent)
chain 1: MSKNKLNLVLPPVNTEATVAAATVAPTPPFKTPSGTDTHSLLGKPKTSIDALTETLEGLDMGDTERKRIKMFLSQKEKIGELSDEDLEKLGELGSGNGGVVMKVRHTHTHLIMARKLIHLEVKPAIKKQILRELKVLHECNFPHIVGFYGAFYSDGEISICMEYMDGGSLDLILKRAGRIPESILGRITLAVLKGLSYLRDNHAIIHRDVKPSNILVNSSGEIKICDFGVSGQLIDSMANSFVGTRSYMSPERLQGTHYSVQSDIWSLGLSLVEMAIGMYPIPPPNTATLESIFADNAEESGQPTDEPRAMAIFELLDYIVNEPPPKLEHKIFSTEFKDFVDICLKKQPDERADLKTLLSHPWIRKAELEEVDISGWVCKTMDLPPSTPKRNTSPN
chain 2: AYINIAEWTPDQVTDWIKGLDESMKGYLYEFSKQEIGGRALLNIRPYELENLGMLRIGHQEIVLEAVENLRNFHYHLKNDNLQFMALHVATAAKNLHRELARNHAESTKIDTRILHDITRTIATLKPLVGSLERTPFRKQEMYREYCGNVLKCGLELATIAHRDRFALQPVPAIRQSAERLENLANFVIQDISDPMVLQPASLNLVTLKKRESELGFNIESSYNGIHRVTDIKYNSPAHNSGKIEDGDEIVQINYQTVVGWQHRTVLEHLREALPDVVLTVKKRPKHTKMFGQIYMQPYRLPSKKRNMAARWAAQMPSPRAAFLTLDTEQLATGGTGSAVPDPSKSLSSEKREVLTKANPVSSASDSDSSCSDIPTPTDPKLAAREIRLYYPKPRALLQRRNTICGCEYLSLKNSDLVVPSWHERKPGIGSPTNCDPGSPSIRDKSISFGYGLEMAARPTTCIGIAGDTSTDKARRMFHEARKLKQLTEDSQREFLVDRYKPGVSKVVRFDAKEDYVMKNEKFICNVENTILETFEPIPFADEGDEDA

Five variants from PMC11257983 (2024) can be followed below.

The first assay covers variants of B1. Briefly: GST pull-down, immunoblot quantification. As to conditions: with Myc-MEK [Drosophila], S2 cells, Flag-CNK2–549, V5-KSR, GST-HYP co-expressed, captured via GST-HYP, anti-Myc (MEK) blot, parent: 1. Background: In western blotting, separated proteins are transferred to a membrane and probed.
With chain 2 AYINIAEWTPDQVTDWIKGLDESMKGYLYEFSKQEIGGRALLNIRPYELENLGMLRIGHQEIVLEAVENLRNFHYHLKNDELQFMALHVATAAKNLHRELARNHAESTKIDTRILHDITRTIATLKPLVGSLERTPFRKQEMYREYCGNVLKCGLELATIAHRDRFALQPVPAIRQSAERLENLANFVIQDISDPMVLQPASLNLVTLKKRESELGFNIESSYNGIHRVTDIKYNSPAHNSGKIEDGDEIVQINYQTVVGWQHRTVLEHLREALPDVVLTVKKRPKHTKMFGQIYMQPYRLPSKKRNMAARWAAQMPSPRAAFLTLDTEQLATGGTGSAVPDPSKSLSSEKREVLTKANPVSSASDSDSSCSDIPTPTDPKLAAREIRLYYPKPRALLQRRNTICGCEYLSLKNSDLVVPSWHERKPGIGSPTNCDPGSPSIRDKSISFGYGLEMAARPTTCIGIAGDTSTDKARRMFHEARKLKQLTEDSQREFLVDRYKPGVSKVVRFDAKEDYVMKNEKFICNVENTILETFEPIPFADEGDEDA [chain 2 N81E], the ratio to parent was 0.27.

On to chain 2 AYINIAEWTPDQVTDWIKGLDESMKGYLYEFSKQEIGGRALLNIRPYELENLGMLRIGHQEIVLEAVENLRNFHYHLKNDWLQFMALHVATAAKNLHRELARNHAESTKIDTRILHDITRTIATLKPLVGSLERTPFRKQEMYREYCGNVLKCGLELATIAHRDRFALQPVPAIRQSAERLENLANFVIQDISDPMVLQPASLNLVTLKKRESELGFNIESSYNGIHRVTDIKYNSPAHNSGKIEDGDEIVQINYQTVVGWQHRTVLEHLREALPDVVLTVKKRPKHTKMFGQIYMQPYRLPSKKRNMAARWAAQMPSPRAAFLTLDTEQLATGGTGSAVPDPSKSLSSEKREVLTKANPVSSASDSDSSCSDIPTPTDPKLAAREIRLYYPKPRALLQRRNTICGCEYLSLKNSDLVVPSWHERKPGIGSPTNCDPGSPSIRDKSISFGYGLEMAARPTTCIGIAGDTSTDKARRMFHEARKLKQLTEDSQREFLVDRYKPGVSKVVRFDAKEDYVMKNEKFICNVENTILETFEPIPFADEGDEDA [chain 2 N81W], for which the ratio to parent stood at 0.05.

In the case of chain 2 AYINIAEWTPDQVTDWIKGLDESMKGYLYEFSKQEIGGRALLNIRPYELENLGMLRIGHQEIVLEAVENLRNFHYHLKNDNLQFMALHVATAAKNLHEELARNHAESTKIDTRILHDITRTIATLKPLVGSLERTPFRKQEMYREYCGNVLKCGLELATIAHRDRFALQPVPAIRQSAERLENLANFVIQDISDPMVLQPASLNLVTLKKRESELGFNIESSYNGIHRVTDIKYNSPAHNSGKIEDGDEIVQINYQTVVGWQHRTVLEHLREALPDVVLTVKKRPKHTKMFGQIYMQPYRLPSKKRNMAARWAAQMPSPRAAFLTLDTEQLATGGTGSAVPDPSKSLSSEKREVLTKANPVSSASDSDSSCSDIPTPTDPKLAAREIRLYYPKPRALLQRRNTICGCEYLSLKNSDLVVPSWHERKPGIGSPTNCDPGSPSIRDKSISFGYGLEMAARPTTCIGIAGDTSTDKARRMFHEARKLKQLTEDSQREFLVDRYKPGVSKVVRFDAKEDYVMKNEKFICNVENTILETFEPIPFADEGDEDA [chain 2 R98E], the ratio to parent is 1.12.

Take chain 2 AYINIAEWTPDQVTDWIKGLDESMKGYLYEFSKQEIGGRALLNIRPYELENLGMLRIGHQEIVLEAVENLRNFHYHLKNDNLQFMALHVATAAKELHRELARNHAESTKIDTRILHDITRTIATLKPLVGSLERTPFRKQEMYREYCGNVLKCGLELATIAHRDRFALQPVPAIRQSAERLENLANFVIQDISDPMVLQPASLNLVTLKKRESELGFNIESSYNGIHRVTDIKYNSPAHNSGKIEDGDEIVQINYQTVVGWQHRTVLEHLREALPDVVLTVKKRPKHTKMFGQIYMQPYRLPSKKRNMAARWAAQMPSPRAAFLTLDTEQLATGGTGSAVPDPSKSLSSEKREVLTKANPVSSASDSDSSCSDIPTPTDPKLAAREIRLYYPKPRALLQRRNTICGCEYLSLKNSDLVVPSWHERKPGIGSPTNCDPGSPSIRDKSISFGYGLEMAARPTTCIGIAGDTSTDKARRMFHEARKLKQLTEDSQREFLVDRYKPGVSKVVRFDAKEDYVMKNEKFICNVENTILETFEPIPFADEGDEDA [chain 2 N95E]: the ratio to parent amounted to 0.94.

The assay is the same for the next values; noted with them: with Flag-CNK^2–549 [Drosophila]; S2 cells; Flag-CNK2–549, V5-KSR, Myc-MEK, GST-HYP co-expressed; captured via GST-HYP; anti-Myc (MEK) blot; parent: 1.
Regarding chain 1 MSKNKLNLVLPPVNTEATVAAATVAPTPPFKTPSGTDTHSLLGKPKTSIDALTETLEGLDMGDTERKRIKMFLSQKEKIGELSDEDLEKLGELGSGNGGVVMKVRHTHTHLIMARKLIHLEVKPAIKKQILRELKVLHECNFPHIVGFYGAFYSDGEISICMEYMDGGSLDLILKRAGRIPESILGRITLAVLKGLSYLRDNHAIIHRDVKPSNILVNSSGEIKICDFGVSGQLIDSMANSFVGTRSYMSPERLQGTHYSVQSDIWSLGLSLVEMAIGMYPIPPPNTATLESIFADNAEESGQPTDEPRAMAIFELLDYIVNRPPPKLEHKIFSTEFKDFVDICLKKQPDERADLKTLLSHPWIRKAELEEVDISGWVCKTMDLPPSTPKRNTSPN [chain 1 E323R], the ratio to parent is 0.56.

Staying with this assay, now noted: with Flag-CNK^2–549 [Drosophila]; S2 cells; Flag-CNK2–549, V5-KSR, Myc-MEK, GST-HYP co-expressed; captured via GST-HYP; anti-V5 (KSR) blot; parent: 1.
Regarding chain 1 MSKNKLNLVLPPVNTEATVAAATVAPTPPFKTPSGTDTHSLLGKPKTSIDALTETLEGLDMGDTERKRIKMFLSQKEKIGELSDEDLEKLGELGSGNGGVVMKVRHTHTHLIMARKLIHLEVKPAIKKQILRELKVLHECNFPHIVGFYGAFYSDGEISICMEYMDGGSLDLILKRAGRIPESILGRITLAVLKGLSYLRDNHAIIHRDVKPSNILVNSSGEIKICDFGVSGQLIDSMANSFVGTRSYMSPERLQGTHYSVQSDIWSLGLSLVEMAIGMYPIPPPNTATLESIFADNAEESGQPTDEPRAMAIFELLDYIVNRPPPKLEHKIFSTEFKDFVDICLKKQPDERADLKTLLSHPWIRKAELEEVDISGWVCKTMDLPPSTPKRNTSPN [chain 1 E323R], the ratio to parent came to 0.66.
